Measured values: the supplement of paper PMC10126150
± gives the standard deviation of the averaged measurements.

System: ATP
Test: switch fluorescence ratio, 500 uM ATP over buffer (Cy3 cluster intensity, sum of 5 cycles each) (fold (ratio)); higher = stronger signal-on switching upon ATP binding; sequences stand for … in TCGTCGGCAGCGTCAGATGTGTATAAGAGACAGTTTTTTTTTTTTTTTTTTTTTTTTT…TC
Conditions: aptamer strand: ATP DNA aptamer (quencher-CACCTGGGGGAGTATTGCGGAGGAAGG + anchor), 100 nM annealed; ATP concentration: 500 uM
Outline: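 Five buffer/ATP imaging cycles were run on Cy3-labelled switching-strand clusters on a modified Illumina MiSeq flow-cell, with NaOH stripping and re-annealing between cycles. In each cycle, clusters annealed to 100 nM quencher-labelled ATP aptamer were imaged in selection buffer, then after 15 min with 500 uM ATP at 22 °C. Per cluster, the fluorescence ratio is summed target-cycle over summed buffer-cycle Cy3 intensity, averaged per switch-domain sequence. Only clusters within 100-1000 RFU were kept.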
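Note: ATP exposure 15 min at 22 °C before imaging.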

| Sequence | switch fluorescence ratio |
| --- | --- |
| GCTGAAAGTG | 1 ± 0.057 |
| CTGACACCCG | 1.07 ± 0.039 |
| ATGGGGGGAT | 1.23 ± 0.58 |
| CATTTTTTTG | 1 ± 0.017 |
| TTACGGGTAT | 1.01 ± 0.039 |
| GTTTGAGTTT | 0.996 ± 0.026 |
| TACCTAAACG | 1.08 ± 0.033 |
| TCTATGGGGG | 0.986 ± 0.019 |
| AAAACGCAGG | 1.02 ± 0.053 |
| AAATGGTGTG | 1.02 ± 0.019 |
| CTCACTATGA | 0.99239 ± 0.0009 |
| AGCGGTGGTT | 1.02 ± 0.012 |
| CGCAAACGCA | 3.62 ± 0.17 |
| AGAGTTTTTA | 1.01 ± 0.035 |
| GGGGTTACAG | 1.01 ± 0.013 |
| TTGTGGTGTT | 0.986 ± 0.023 |
| TACAACTAGA | 1 ± 0.024 |
| CATGGGGTGG | 0.9671 ± 0.0014 |
| CGTTCTATGT | 1.01 ± 0.02 |
| GGTGTGTTAA | 0.996 ± 0.042 |
| ATTATATGGT | 0.98 ± 0.029 |
| TTTGATGGTG | 1.04 ± 0.012 |
| ACTAGGTGGG | 1.01 ± 0.041 |
| GCGGTTAGCT | 1.04 ± 0.066 |
| TTGCTTTGTA | 0.943 ± 0.018 |

| Sequence | switch fluorescence ratio |
| --- | --- |
| TGGGATGGAA | 1.004 ± 0.0031 |
| TTTCAGTGAC | 1.04 ± 0.079 |
| CTTCGCACGG | 3.54 ± 0.37 |
| AGTGCGCATG | 1.01 ± 0.032 |
| CGACGTGGCG | 0.981 ± 0.064 |
| TGAATACGGG | 1.006 ± 0.004 |
| AGGTTTTTCT | 0.987 ± 0.024 |
| CGTATTTTGC | 1.03 ± 0.066 |
| TTGCAGCATG | 1.51 ± 0.68 |
| GCAAGATTGA | 0.999 ± 0.044 |
| ATGTGTCTAT | 0.998 ± 0.036 |
| GCTTTCGATG | 1.02 ± 0.02 |
| TTTTACTGAG | 1.04 ± 0.025 |
| CAGTGGAGGA | 1 ± 0.024 |
| TTGTTAGAAT | 1.038 ± 0.0047 |
| TTTTAAAGTC | 1.02 ± 0.03 |
| TTTTTCAATC | 1.07 ± 0.035 |
| ACTTTACGGC | 1.286 ± 0.0091 |
| CCGAGATCTT | 1.03 ± 0.032 |
| TTCGGGGTTT | 1.02 ± 0.06 |
| TTTGCTGGTA | 1.006 ± 0.0064 |
| TAGCCAGCTC | 0.996 ± 0.034 |
| TGTGTCTAGT | 0.974 ± 0.0013 |
| TAGTCGTTTC | 1.02 ± 0.035 |
| ATGGGGATCA | 1.017 ± 0.0022 |

| Sequence | switch fluorescence ratio |
| --- | --- |
| AAGAGACGGG | 1.009 ± 0.0018 |
| GTGTTCATCG | 0.973 ± 0.037 |
| GAGCTTCTAG | 1.03 ± 0.015 |
| AAGTCTTTTC | 0.975 ± 0.036 |
| GAGAATTGAA | 0.99 ± 0.014 |
| AACGAAACTT | 1.123 ± 0.0042 |
| TTTTGGAATG | 1.011 ± 0.0027 |
| GGGCGGGTCT | 1.01 ± 0.046 |
| TGGGGAAATG | 0.997 ± 0.029 |
| TTACTGATCG | 1.025 ± 0.0073 |
| GGGGTATGCT | 1.03 ± 0.032 |
| GCAGGTTGGT | 1.036 ± 0.0042 |
| GTAAGGAAAT | 1.013 ± 0.0024 |
| AATTGCCGTG | 0.99946 ± 0.00023 |
| GGCGTCCTTT | 0.994 ± 0.031 |
| AGCAGAAATG | 0.9979 ± 0.0074 |
| CTGTATCTTT | 1.02 ± 0.036 |
| TTGGTGCCGC | 0.975 ± 0.017 |
| GTAGGTTATG | 1.007 ± 0.0081 |
| GAAAGTTAAA | 1.038 ± 0.0091 |
| TAGATGGGGT | 1.01 ± 0.031 |
| AATAGTGACG | 1.14 ± 0.28 |
| GGCCAAAGGG | 0.9965 ± 0.0036 |
| TCTCGGGGCG | 1 ± 0.055 |
| AGTGCTTACG | 0.995 ± 0.025 |

| Sequence | switch fluorescence ratio |
| --- | --- |
| GGGGGGATTA | 0.992 ± 0.035 |
| CGATATGGGC | 1.02 ± 0.014 |
| AGAAAAAGGT | 1.01 ± 0.032 |
| GAATTTATGG | 0.985 ± 0.023 |
| AGACATAGAG | 1 ± 0.011 |
| TAGTAGCTGT | 1.04 ± 0.089 |
| TTTTTCCCGA | 1.018 ± 0.0038 |
| TGTTAGAGGC | 1.03 ± 0.1 |
| TAATGGAAAT | 0.979 ± 0.022 |
| ATGTTAAACG | 1.007 ± 0.0024 |
| CTTATATTTT | 0.997 ± 0.066 |
| GGGGAAAAGG | 1 ± 0.017 |
| GTGGTTCCTG | 0.967 ± 0.015 |
| CCGGTATGGT | 1.012 ± 0.0077 |
| TGGGTGCTGA | 0.954 ± 0.052 |
| TAAGAGTAAT | 0.985 ± 0.042 |
| ACGAGCCTAG | 1.33 ± 0.058 |
| AAGCTGCATG | 1.01 ± 0.018 |
| CTGGACAGTA | 1.01 ± 0.027 |
| CGAATAAGCG | 0.995 ± 0.023 |
| ATGTATTTAT | 1.04 ± 0.061 |
| TGGGGGCCGG | 1.02 ± 0.039 |
| GGGAAGGGTG | 1.08 ± 0.089 |
| ATATTAAGTC | 1.02 ± 0.013 |
| TCCACGTTGG | 1.01 ± 0.0067 |

| Sequence | switch fluorescence ratio |
| --- | --- |
| TTTTGTCTTT | 1 ± 0.032 |
| AGTTATGAGT | 1.01 ± 0.054 |
| GTTTCTGGAT | 0.98 ± 0.032 |
| GCCCAAGGA | 1.028 ± 0.0062 |
| GCACTGGGGC | 1.01 ± 0.023 |
| GTTCAGAGGG | 1.05 ± 0.1 |
| GGGGGCACTT | 1.008 ± 0.0045 |
| TATTGATTTA | 1.02 ± 0.042 |
| TGGAACTTAT | 0.997 ± 0.056 |
| TGGGAGGGGG | 0.991 ± 0.036 |
| ACATACGGGG | 1.3 ± 0.1 |
| ACAAGGGAGC | 0.954 ± 0.018 |
| TAAACACCTG | 1.02 ± 0.095 |
| GGATTTTTTT | 1 ± 0.032 |
| TTTGTTCCTC | 1.103 ± 0.005 |
| GTCTTATATT | 1.01 ± 0.06 |
| CATGGGTGGG | 0.994 ± 0.028 |
| CCGGATTGTC | 1.13 ± 0.044 |
| CATGTTTTGT | 1.02 ± 0.017 |
| TGGGGGTTCC | 1.01 ± 0.025 |
| TTCGGTGTTT | 1.02 ± 0.022 |
| AAGTTTAATA | 0.943 ± 0.034 |
| ACTAGGTCAT | 1.03 ± 0.017 |
| ACAGACTTGT | 1.01 ± 0.037 |
| CATATGGGGT | 1 ± 0.038 |

| Sequence | switch fluorescence ratio |
| --- | --- |
| TATTACTGAG | 1.07 ± 0.036 |
| CGTGGGAGAA | 1.09 ± 0.084 |
| TTATAGGTTG | 0.984 ± 0.02 |
| GGCTACCAGT | 0.96 ± 0.038 |
| GAGGGTGAGT | 0.9809 ± 0.0054 |
| GGGTGAGGAG | 0.998 ± 0.025 |
| TTCGCGTGTT | 1.003 ± 0.0055 |
| CGTCTGGCGG | 1.01 ± 0.021 |
| TGGTGAGGGG | 1.12 ± 0.24 |
| CGTCGCGGCA | 0.989 ± 0.026 |
| CCCCTGTTTT | 1.01 ± 0.022 |
| ATTTCGTTGT | 1 ± 0.07 |
| AATAGGGGAA | 1.01 ± 0.042 |
| TCGAAGCCAG | 1.061 ± 0.0045 |
| GATTTTCGCT | 0.971 ± 0.022 |
| GTATGAAATC | 1.02 ± 0.036 |
| ACGGTCTTGG | 0.999 ± 0.015 |
| GGCGCAAAGC | 1.487 ± 0.013 |
| GAATGGCGTA | 1.02 ± 0.046 |
| AATTGGTGGT | 0.965 ± 0.032 |
| CCAGAGGGAT | 0.992 ± 0.024 |
| GGTCGCTACA | 1.01 ± 0.026 |
| CTATTAGGGT | 0.999 ± 0.052 |
| CGCGTAGACA | 0.992 ± 0.055 |
| GGGCAGAGGC | 1.06 ± 0.029 |

| Sequence | switch fluorescence ratio |
| --- | --- |
| AACCAATCGT | 1.03 ± 0.041 |
| TGGGTCTGAT | 0.9865 ± 0.0031 |
| CCTTACATCG | 1.12 ± 0.044 |
| ATGGTTTCGA | 0.982 ± 0.04 |
| AGAAGGGGAC | 1.02 ± 0.026 |
| CGAGAGACCG | 0.951 ± 0.013 |
| GACCGGGCCC | 1.01 ± 0.015 |
| AATGTTAGTG | 0.958 ± 0.036 |
| GGGGGTATTT | 1 ± 0.018 |
| AGTTATACAC | 1.014 ± 0.0099 |
| AAAAGGATGG | 0.979 ± 0.021 |
| GTAACTAATG | 1.02 ± 0.02 |
| TGCTATAAAG | 0.988 ± 0.043 |
| GGGGGGGGTC | 0.989 ± 0.034 |
| GTCAGAAATG | 0.982 ± 0.013 |
| CACAATGCAG | 1 ± 0.033 |
| GACGAATCAG | 0.97 ± 0.018 |
| GGGGTTTCCT | 1.11 ± 0.16 |
| CTAATGGAAA | 0.998 ± 0.026 |
| TAGCGGGCCG | 1.01 ± 0.039 |
| CGATATCAAT | 1.061 ± 0.0062 |
| GAGGTTGTAC | 1.02 ± 0.012 |
| AGGGGGATGT | 0.974 ± 0.05 |
| TTTGATGAGT | 1.01 ± 0.013 |
| TAGTTAATAT | 1 ± 0.019 |

| Sequence | switch fluorescence ratio |
| --- | --- |
| TAAAAGGGCG | 1.03 ± 0.012 |
| CACCGGAAAA | 1.09 ± 0.094 |
| GCATGGGTAC | 1.05 ± 0.018 |
| GGGATGGATA | 1.03 ± 0.085 |
| TTTTACGGGG | 1.02 ± 0.03 |
| GAAAGTGTGT | 1.004 ± 0.0092 |
| ATGGTGGTTT | 0.998 ± 0.063 |
| ATACTTTATT | 1.09 ± 0.034 |
| TTTGGGTGCG | 0.998 ± 0.04 |
| GCTTGGGATT | 0.977 ± 0.029 |
| AGGTGTCGTC | 0.975 ± 0.018 |
| TTTGGGTAAA | 1.02 ± 0.032 |
| ATCAACGGCA | 1.07 ± 0.023 |
| TTGGGTGAGC | 0.994 ± 0.024 |
| CATCGAGTTC | 1.05 ± 0.025 |
| GTTTCTAGCT | 0.969 ± 0.028 |
| GTTGGGTTTG | 0.999 ± 0.026 |
| CAATCCTGGG | 0.989 ± 0.034 |
| TTTGACCCTA | 1.04 ± 0.019 |
| CGGCTGTGTG | 0.974 ± 0.02 |
| ATTCACATAT | 1.11 ± 0.02 |
| AGTGCGGCCG | 0.9846 ± 0.0036 |
| TGTTGGGCAG | 0.9634 ± 0.0089 |
| AGTTTTGGCA | 1.03 ± 0.015 |
| ATGCATGGAG | 1.03 ± 0.016 |
